Results from the DeepSol protein solubility set.

Assay: soluble on expression in E. coli; label from the status in PepcDB or PDB records

Sequence | soluble on expression in E. coli
MAGNAPLQQVQKKWAECQYSTPDGDEKEQCFHRAIAKTSIYLDREPGNPELTVWLAINKASLAGAQGGFGALSLAKEAKSLLEGVIATSPQTLDGSAYTSLGSLYYKVPGWPIGFGDDDKAEEMLKKALEINPKGIDPNYFYGDFLAEEGRDKEAKVYLTRAMQASPRPDRPLADKGRKLEIEATLGRLKLEHHHHHH | soluble
METPMHDEEESDSLNTSHLSDVELDDLVTTKFVEEFKNLKIADDSLEVVRDVGSPLNQALSPIERRNSDEFLLEDHPSLVRPIKDIFQRDEAMLLKNRILDASDEILKTNFMWNMFERSKKWRNTSHSSEVSLLDSLFQMVDRRPVLLHISCSRLTENDISCMIRKSLLDVAAQPRQKTVFRVTIKTEMPLKQFLGQLAMLLSTSPTIKFECAPVTALMKNLDGSMRKFYTAEVENFAEAELGLLSMSHLSPMNASARFKFTMNEKPFVTVNVGYHSNIDQCRRQKTIVIEQTVDGTVPARRVTFGFPLVSRVEEYELDEGLPFIPLRNSTKVFDLSQHFGNVQALPKVLDLKNIVFK | not soluble
MVDIANEVGASESAIPPLKMLLLEGARQAALEAGLQNNSGILADTTFGQQALNDVTGQGWWIGRPVEMPGSYPLKLEHGDIGSQLVSWPQEHVVKCLVFYHPLDAESVRLEQEALIDEVYRACCQSGHDLLLEVILPRDAADQNEQYYPQIVERFYQLGILPDWWKLPPLSPDRWREISQHIEHYDPECRGILILGLDAPESELKSGFAAAADMPWVKGFAVGRTIFGEPSRQWLGGQLNDEQLIATVKQKYRMLIDYWREYRPAR | not soluble
SAMLSSTMKIEALLTEKHINLNLGSSSKDEVIDTLIAMVADHDKVRDLKQLAEDVRKREREMSTGIGKNIGLPHAKTSAVTEPVLALATLSNEVDFESIDNQPVKIVFLLATPETMLAEHLKLLGRITRLAGRDDVRRKLIDAATPADVLELFKQEERDLPQI | not soluble
MGSDKIHHHHHHMALLEVHNLNKRFTDHISLFHKQRFYAVKNISFNLNEGETIAIIGENGAGKSTLAKMIAGITKPTSGDMFFRYKKLTYGDYQFRTKHIRMMFQDPNHTFNPNHNIGQILDAPLRLATDMNEQERNECIFNTLKLVGMYPEYALIPIKETSTSQKQRIALARALILSPEIIIADDTLSTLDFSVKTQLTNLMLNLQEKLGIAFIYVGQHLGIIKHIADKLIIMHQGEAIEYGDTKEVLLNPQNPITARLIESHFGKMLTEDAWAK | not soluble
MAHHHHHHMELPFQWDDGNFISPFLTSGDDTLRVLAAWLNDSPLLRFQHGGALRLTDLGCGDGSALLSLSAGLFTLWGASGCRDVSPLQLTAVGLDLDEELILAARRRAEAIIVPPPHRLHCVFETVDVRQLDAAQYFPLSESSRHVLFVYLLPEGLEAIREKLLEIISRVALLVSNRWEVPFLARWKRVKLQNLHLYQYVGDGAN | not soluble
MAHHHHHHMLHNGKKNPTQAVDDGNPRKSKHREVGSHCKGLDKKENINKSGEEHIKKVEGRENCEPHDIKRRGEIDKVLIQCEELQRKELEALKLIYVRDRELVIQNENDEKRDTIIHMQLNDENISDNVINLTFELPKDYPLKSFLLIDINVKNFTPDMNNYLNQEVYKDMPNYIAHENSILSIIYRINELVENIQNSKKTSVDHSYLSSEEREEYVEEGAFDPSEDQLIKDHVPFLYCSGMTYSHHRRVLARRLCYSHHILSLVKRTYIIKWAKDLKIGGYSKIGYPGIIICEGPKEEVDFYINSLNKLRWKHFDCRGMEDIILKEYEDLDDARVLPRTMYELDPKGMSTLSNICTECGLRDLFLTSMKIYHT | not soluble
MKKEKDLSVAVLIDGDNASSEKMEDVMRFVSRYGAAVVRRIYGDWTKKSLSGWKDAARDYSFRMVQASSFVPGKNTTDIALVMDAMDILHEGRVGCFCLVASDGDYTLLAQRIRESGLTVLGYGEGKTPAALVRSCTEFLLADRKEEKPFQENTPEFFIQRDMEYFDKAFEQAADGKAEVSLSLIGGVLKKLMPKFKVKRYGCRTLGKLYERLEKYELVKTGKGVAGLVRIKS | not soluble
MSLAHVCSVILVRRSFDIHHEQQKISLHNESILLLDKNLADDFAFCSLDTRRLDIEELTVCHYLQNIRQLPRNLGLHSKDRLLINQSPPIQLVTAIFDSFNDPRVNSPILSKMLYLSCLSMFSHKKELIPLLFNSISTVSGKVERLISFDIAKRWYLRDIAERMYTSESLIKKKLQDENTCFSKILLASRMSMARRLLELRQIPLHTIAEKCGYSSTSYFINTFRQYYGVTPHQFSQHSPGTEGHHHHHH | soluble
MAEKLGPEKRHAFVHNGQKVFEWDQTLEEVNMYIELPKGVPTKLFHCAIQATHVEVGIRGNPPYLNFYICGSYFLYELSIQFSEQFDEWTPSSEDGEMHITLQKREKGKTWSSPIQGQGSLDPYAADQEQKRLMLQRFQEENPGFDFSQAQFTGTCPDPRTFMGGIRSD | soluble
MEGGMKRVVLAFGTRPEATKMAPVYLALRGIPGLKPLVLLTGQHREQLRQALSLFGIQEDRNLDVMQERQALPDLAARILPQAARALKEMGADYVLVHGDTLTTFAVAWAAFLEGIPVGHVEAGLRSGNLKEPFPEEANRRLTDVLTDLDFAPTPLAKANLLKEGKREEGILVTGQTGVDAVLLAAKLGRLPEGLPEGPYVTVTMHRRENWPLLSDLAQALKRVAEAFPHLTFVYPVHLNPVVREAVFPVLKGVRNFVLLDPLEYGSMAALMRASLLLVTDSGGLQEEGAALGVPVVVLRNVTERPEGLKAGILKLAGTDPEGVYRVVKGLLENPEELSRMRKAKNPYGDGKAGLMVARGVAWRLGLGPRPEDWLP | soluble
MKGFIDDANYSVGLLDEGTNLGNVIDNYVYEHTLTGKNAFFVGDLGKIVKKHSQWQTVVAQIKPFYTVKCNSTPAVLEILAALGTGFACSSKNEMALVQELGVSPENIIFTSPCKQVSQIKYAAKVGVNIMTCDNEIELKKIARNHPNAKVLLHIATEDNIGGEDGNMKFGTTLKNCRHLLECAKELDVQIIGVKFHVSSACKEYQVYVHALSDARCVFDMAGEFGFTMNMLDIGGGFTGTEIQLEEVNHVISPLLDIYFPEGSGIQIISEPGSYYVSSAFTLAVNIIAKKVVENDKFSSGVEKNGSDEPAFVYYMNDGVYGSFASKLSEDLNTIPEVHKKYKEDEPLFTSSLWGPSCDELDQIVESCLLPELNVGDWLIFDNMGADSFHEPSAFNDFQRPAIYFMMSFSDWYEMQDAGITSDAMMKNFFFAPSCIQLSQEDSFSTEA | soluble
MILTEVSQPTEGIKLATTNVQAFFKIDSLGNGTLYITDSAVIWISSAAGTKGFSVAYPAIVLHAISTDVSVFPSEHIFVMVDQRKSVRRRRRAPVLRTIQEDDEQRGLELAAAELEDEESDDDEEEPALEIRFVPDDKDSLSQIYHQIAVGQEENPEEDDPMYDDEEEEMEEEMGDDGQGQSGQWFTADNIDHMQMSEEGLANMQRIFGRGDQHQHHHNEDESME | not soluble
MGSDKIHHHHHHLTIRVLAHLAGAHLDHAIALGLRSGLGDDWLRIGGLKLFADGSLGSESAHMLLPYEGRDHTGIAVIPPAEMQEIVTRANAHGISVVVHAIGDAANRSVLDAIAAARATAASLALPNRIEHCQILDPHDIPRFAELNVIASMQPIHCTADMVMAERLWGKRCATSYAWRSLRAAGATLAFGSDAPVETMDPWAGIHAAVTRQTTDGTPDGGWYPEQRLTLTEALEAYCIGPTIAGADAERRGRLIPGMFADLAVLNGDPFQMPVTHLHTLHAELTMVGGKIVFNRTSR | not soluble
MLVIKGVKAYTMSNIGVVEKANIIVKDGKIVDVTQELPPLEGKTVVDGEGLIALPGLIDPHTHLGVYSLEWEYGDHGTEKSDPITPHFKVIDGLDIFDPGFKDAIAGGVTTVSVEPGAPLSWASYEKTTIMPGQSAILKTNGRIIKEEAGIKIAVGGHVRKFLEELKLTPTTRMGIFAMIRMILHKAKEYLEKEDKQYDPKLEALATLLKNETVARVHAHLSRDMLSIIRLLKEFDIKNIIIEHGTEAYKISDVLKENGIPVILGPVIFPRRGVELRELSSKLAFQLYNSGMMFALTTDHPALPIQYLTLVAAACVGEGLPYEEALKSITINPAKILGIDRFVGSLEPGKDADIVLFDGDPLNPESKVMYTIIDGEVVYER | soluble
MSFLEKLVAKYEPIKEEKPKLVPKPTRKRQPETTEIVVKTRRITRRNAKAPVKEEEIGHQKAQITIVDDEEFMEQPVQEPIEIEEEQQEESHLEIALPEQPNHEPMQSSPSLPRKSFKPDMHPIAKKGGKICIVDLGLTSHTLPTEQTPGFLKRLGENVGGSIDYSYESIDELIRTAPDAWSKASMGAIRGVMLMQELVTERSMHPKSKPMEKNRLLGEEMAKLNPNDFLNHKLLEVSSLDQTVFINVNLVFSALSIQHGSVRSIVNAMSNHWIDYLIPREQQGSFTTSKKTEPLTFFPGDLTNWPAALLAAAIKLDNDQVDVTRLPSVVNMLFKHHIKVRFDHARGLYRTKHDGQNPPKIVLPKRPIIDCTQFYKSSEDIDEEQVPSTSNFQSSSNSLSTSKSAGREHIPDSP | not soluble
MGHHHHHHSHNTTKPKSLAVKKAKWHLGIRSQSKPYDIMAEVYRAMKQLDFEWKVVNAYHLRVRRKNPVTGNYVKMSLQLYLVDNRSYLLDFKSIDDEVVEQRSGS | not soluble
MKEHSIDIQLSHPDDLFHLFGSNERHLRLMEEELDVVIHARTEIVQVLGEESACEEARQVIQALMVLVNRGMTVGTPDVVTAISMVKNDEIDKFVALYEEEIIKDNTGKPIRVKTLGQKLYVDSVKQHDVTFGIGPAGTGKTFLAVTLAVTALKRGQVKRIILTRPAVEAGESLGFLPGDLKEKVDPYLRPVYDALYQILGKDQTTRLMEREIIEIAPLAYMRGRTLDDAFVILDEAQNTTIMQMKMFLTRLGFHSKMIVNGDISQIDLPRNVKSGLIDAQEKLKNIHQIDFVHFSAKDVVRHPVVAQIIRAYEYSTEVAHD | not soluble
MLIVRPSGRAAEDVETCLNAGWRAEVLSPVEIEADAAGLELLSEQYARADAVFWVSPTAVETAVPYLNLSDGIKAQIAVGQGSRRALERCLVRTVIAPDDGNDSEAVLRLPVWNSLPEGARVLFVRGHGGRDFLMNALQEKGFRTEVAEVYFRRHKPLNFQNFQTENIAAAYITSTELVRLLFGQLPPQFSRFFKSLLYFTHHPRIAEALKREGVCSVETVPTLEAALSHSSISVSDGMVFPGTSN | not soluble
MSLEGYTVIIKTGNEDLDRRLTGLPFPALIMIEGDHGTGKSVLAAQICYGLLISDKKGYVITTEQTTKDYLVKMRDVKINLIPFFIKGSLGVAPLNTNKFNWNSDLANKILDLIIDFVKKRKNIEFLIIDSLSVLATFAEERQILQFMKESRVLVDLGKLILFTIHPDVFSEEIKSRITSIVDVYFKLSAVTIGGRRIKVLERVKTVGGIQGSDTISFDIDPALGIKVIPLSLSRAEGHHHHHH | soluble
MGSDKIHHHHHHMKPNNWVSSSQATELLSKQLVTWPLAEKNYKALEAVQVKSFDMGGFSIRAQFNPARIVSTGAKVDARSLKERKCFLCPENLPVEQERLPFGFRHLVLCNPYPIFPQHFTIPTRKHTPQLILPQWNDFLELTRRLAPFTVFYNGPRSGASAPDHAHFQAVTRGIMPLDEEVTQFIRQSYASVYDNRIYPLTGNLRPGLVIQAATEEAATRLFKKIYAALPILPGEPEPMMNIFGSYYDNNWVITVIPRKRHRPWQYEAEGNDHLLSSPGAADIGGLFITPLEKDFKKINPELLRDVYQQVCLNDRDVEEIFVHLSSN | not soluble
